Test results taken from patent US20210188958A1 (JILIN UNIVERSITY, published 2021).

Experiments:
Assay in all cases: indirect ELISA, peptide coated at 0.25 ug/well
synthetic peptide W4 = biological target: T1, synthetic peptide W4 (Trichinella spiralis)
T1 construct: also called Ts-WN10-W4
T1 peptide: TVSKCFEEVEEPLII

synthetic peptide W5 = biological target: T2, synthetic peptide W5 (Trichinella spiralis)
T2 construct: also called Ts-WN10-W5
T2 peptide: QILGETTHYGRNDP

synthetic peptide W6 = biological target: T3, synthetic peptide W6 (Trichinella spiralis)
T3 construct: also called Ts-WN10-W6
T3 peptide: ALFSSDSKEQSGVLH

synthetic peptide W7 = biological target: T4, synthetic peptide W7 (Trichinella spiralis)
T4 construct: also called Ts-WN10-W7
T4 peptide: HKLVELEESSTMGIL

synthetic peptide W8 = biological target: T5, synthetic peptide W8 (Trichinella spiralis)
T5 construct: also called Ts-WN10-W8
T5 peptide: CTLEYRHRTPSTATV

synthetic peptide W9 = biological target: T6, synthetic peptide W9 (Trichinella spiralis)
T6 construct: also called Ts-WN10-W9
T6 peptide: EEQVVSQRSQMLGGT

synthetic peptide W10 = biological target: T7, synthetic peptide W10 (Trichinella spiralis)
T7 construct: also called Ts-WN10-W10
T7 peptide: IFESDKKKSSGTYLL

synthetic peptide W11 = biological target: T8, synthetic peptide W11 (Trichinella spiralis)
T8 construct: also called Ts-WN10-W11
T8 peptide: KETECGIKEKAFNSY

synthetic peptide W12 = biological target: T9, synthetic peptide W12 (Trichinella spiralis)
T9 construct: also called Ts-WN10-W12
T9 peptide: EKAFNSYEDVYKNCS

synthetic peptide W13 = biological target: T10, synthetic peptide W13 (Trichinella spiralis)
T10 construct: also called Ts-WN10-W13
T10 peptide: DVYKNCSGSGDSKVC

synthetic peptide W14 = biological target: T11, synthetic peptide W14 (Trichinella spiralis)
T11 construct: also called Ts-WN10-W14
T11 peptide: VEYKYFDPTKSTVEC

synthetic peptide W1 = biological target: T12, synthetic peptide W1 (Trichinella spiralis)
T12 construct: also called Ts-WN10-W1
T12 peptide: ALFSSDLKQESGVFH

synthetic peptide W2 = biological target: T13, synthetic peptide W2 (Trichinella spiralis)
T13 construct: also called Ts-WN10-W2
T13 peptide: VNCQGEGRRKHCTME

synthetic peptide W3 = biological target: T14, synthetic peptide W3 (Trichinella spiralis)
T14 construct: also called Ts-WN10-W3
T14 peptide: TMEYTHRNPSKATVS

B1: WN10-1H9-Ab (antibody, V domains shown)
VH: QVQLQQPGSELVRPGASVKLSCKASGYTFTSYWMHWVKQRPGQGLEWIGNISPGSGNTNYDEKFKTKATLTVDTSSSTAYMQLSSLTSEDSAVYYCTRHGTVDYWGQGTTVTVSS
VL: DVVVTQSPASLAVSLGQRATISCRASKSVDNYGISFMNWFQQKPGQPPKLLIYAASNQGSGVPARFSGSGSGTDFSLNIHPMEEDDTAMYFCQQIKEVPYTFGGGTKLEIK
notes: Mouse monoclonal antibody; It was used as hybridoma supernatant in the ELISAs; also called 1H9 monoclonal antibody; monoclonal antibody generated by hybridoma cell line WN10-1H9 (CGMCC No. 18316)
OD 450 nm (synthetic peptide W4): 0.171 OD 450 nm
OD 450 nm (synthetic peptide W5): 0.286 OD 450 nm
OD 450 nm (synthetic peptide W6): 0.127 OD 450 nm
OD 450 nm (synthetic peptide W7): 0.162 OD 450 nm
OD 450 nm (synthetic peptide W8): 0.152 OD 450 nm
OD 450 nm (synthetic peptide W9): 0.144 OD 450 nm
OD 450 nm (synthetic peptide W10): 0.161 OD 450 nm
OD 450 nm (synthetic peptide W11): 0.147 OD 450 nm
OD 450 nm (synthetic peptide W12): 0.16 OD 450 nm
OD 450 nm (synthetic peptide W13): 0.166 OD 450 nm
OD 450 nm (synthetic peptide W14): 0.158 OD 450 nm
OD 450 nm (synthetic peptide W1): 0.0733 OD 450 nm
OD 450 nm (synthetic peptide W2): 1.15 OD 450 nm
OD 450 nm (synthetic peptide W3): 0.149 OD 450 nm
